From US20090123479A1 (published 2009) come the findings set out here.

The target in assay [1] is T1, recombinant human IL-23 (human, UniProt Q9NPF7 20-189; P29460 23-328).
T1 construct: also called hIL-23
T1 sequence 1: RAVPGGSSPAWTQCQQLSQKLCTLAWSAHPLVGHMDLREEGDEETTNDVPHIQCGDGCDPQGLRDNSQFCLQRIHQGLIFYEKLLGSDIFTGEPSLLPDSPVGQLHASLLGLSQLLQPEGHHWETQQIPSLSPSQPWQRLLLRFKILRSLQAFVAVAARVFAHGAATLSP
T1 sequence 2: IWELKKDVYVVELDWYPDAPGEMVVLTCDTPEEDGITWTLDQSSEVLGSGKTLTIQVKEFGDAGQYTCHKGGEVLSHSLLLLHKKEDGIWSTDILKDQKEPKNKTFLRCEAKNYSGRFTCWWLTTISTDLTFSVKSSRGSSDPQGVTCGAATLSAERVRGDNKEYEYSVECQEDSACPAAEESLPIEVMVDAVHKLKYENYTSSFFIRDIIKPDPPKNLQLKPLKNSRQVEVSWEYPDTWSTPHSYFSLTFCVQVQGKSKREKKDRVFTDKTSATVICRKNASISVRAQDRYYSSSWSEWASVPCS
Briefly: SPR (Biacore T100), transient material captured on Protein A or anti-human IgG, IL-23 analyte at 256, 64, 16, 4, 1 nM. The procedure:
Protein A or an anti-human IgG (Biacore BR-1008-39) was immobilised on a Biacore CM5 chip by primary amine coupling in accordance with the manufacturer's instructions. Anti IL-23 antibodies were captured on this surface and after a period of stabilisation, […] was passed over the antibody captured surface and a binding sensorgram was obtained. […] All runs were double referenced with a buffer injection over the captured antibody surface. Data was analysed using the 1:1 model using the software inherent to the Biacore 3000 or T100 depending upon which machine was used to generate kinetics. Analysis was carried out at 25° C. using HBS-EP buffer. Data presented in Tables 3-6 are on tissue culture supernatants of CHO cells transiently expressing the antibody of interest unless otherwise indicated. Data was generated using concentrations of IL-23 (256, 64, 16, 4, 1 and 0.25 nM) The data shown for the humanized variants is representative of a number of runs, The chimeric mAb (8C9H6.HC1LC1) was only run once in each experiment, so data shown for this mAb is from that one run, […]
On the technique in general: In SPR one partner is held on a chip, and binding of the other changes the refractive index at the surface.

The target of assay [2] is T1, recombinant human IL-23. Briefly: IL-23/IL-23R inhibition ELISA (first protocol, OD490): plate coated with human IL23R Fc chimera, antibody pre-incubated with constant human IL-23, bound IL-23 detected with biotinylated anti-human IL-12; purified antibody. The procedure:
Chimeric and humanized mAbs were assessed for their ability to neutralise human IL-23 binding to human IL-23 receptor, and cyno IL23 binding to human IL23 receptor. Plates were coated with human IL23R Fc chimera at 1 μg/diluent (bicarbonate buffer). 50 μl/well of this mixture was incubated overnight at 4° C. The plates were then washed twice with Tris Buffered Saline with 0.05% Tween 20 (TBST). Plates were blocked with 1% BSA TBST 100 μl/well for a minimum of 1 hour at room temperature. The plates were then washed twice with Tris Buffered Saline with 0.05% Tween 20 (TBST). Various concentrations of antibody were incubated in a separate plate with a constant concentration of IL-23 for 1 hour at room temperature. 50 ul of each mixture were transferred to the assay plate and incubated at RT for 1 hr. They were then washed twice with Tris Buffered Saline with 0.05% Tween 20 (TBST). Bound IL23 was detected by anti human 1L12 Biotin labelled Ab (R&D systems BAF219) diluted to 100 ng/ml in 1% BSA TBST. 50 μl/well of the biotinylated antibody was added and incubated at RT for 1 hour. The plates were then washed twice with Tris Buffered Saline with 0.05% Tween 20 (TBST). ExtrAvidin-Peroxidase (Sigma E2886) was diluted 1/1000 in 1% BSA TBST, 50 μl/well was added to the plates. […] The plate was read at OD490 nm using the SOftmaxPRO versamax plate reader.
A general note: In an ELISA, binding on a coated surface is turned into a signal by an enzyme label.

Assay [3] addresses T1, recombinant human IL-23. Briefly: SPR (Biacore T100), purified antibody captured on anti-human IgG, IL-23 analyte, 1:1 model. The procedure: Biacore analysis was carried out using a capture surface on a CM5 chip. Anti-human IgG (BR-1008-39) was used as the capturing agent. Anti-human IgG was coupled to a CM5 biosensor chip by primary amine coupling. Humanized antibody was captured on this immobilised surface and defined concentrations of IL-23 were passed over this captured surface. An injection of buffer over the captured antibody surface was used for double-referencing. […] T100 Biacore machine was used to generate the data; all runs were carried out at 25° C. using HBS EP. Data was analysed using the software inherent to the machine and fitted to the 1:1 model of binding. Tables 7 and 8 detail the IL-23 binding analysis carried out on the 8C92H6.HC1LC1 chimera and selected humanized variants in two separate experiments. Data presented in Tables 7 and 8 are from purified antibody samples. The data shown for the humanized variants is representative of a number of runs. The chimeric mAb (8C9H6.HC1LC1) was only run once in each experiment, so data shown for this mAb is from that one run.

For assay [4], the target named is T1, recombinant human IL-23. Briefly: SPR (Biacore T100), CHO supernatant antibody captured on Protein A or anti-human IgG, IL-23 analyte at 256, 64, 16, 4, 1 nM.

B1: chimeric 8C92H6 HC1LC1 (antibody, V domains shown)
VH: QVQLQQSGAELARPGTSVKLSCKASGYTFTSYGITWVKQRTGQGLEWIGENYPRSGNTYYNEKFKGKATLTADKSSSTAYMELRSLTSEDSAVYFCARCEFISTVVAPYYYALDYWGQGTSLVTVS
VL: DIVLTQSPASLAVSLGQKATISCKASKKVTIFGSISALHWYQQKPGQPPKLIYNGAKLESGVSARFSDSGSQNRSPFGNQLSFTLTIDPVEADDAATYYCLQNKEVPYTFGGGTKLEIKR
notes: Murine variable regions with human constant regions; also called 8C92H6.HC1LC1 Chimera; 8C9 chimera
As a reminder, the Kd is the concentration at which binding is half-saturated. The koff is the first-order rate constant of dissociation. A word on the kon: it is a measure of how fast the partners come together. On to B1, for which, in the assay with recombinant human IL-23 [1], the Kd worked out at 1.8 nM, the koff was determined as 0.00038 s⁻¹ and the kon was 210000 M⁻¹ s⁻¹. Moreover, in the assay with recombinant human IL-23 [2], the “IC50 (read off the curve)” value is ~0.08 µg/mL.

B2: A3M0 (antibody, human IgG1, kappa, V domains shown)
VH: QVQLVQSGAEVKKPGSSVKVSCKASGYTFTSYGITWVRQAPGQGLEWMGENYPRSGNTYYNEKFKGRVTITADKSTSTAYMELSSLRSEDTAVYYCARSEFISTVVAPYYYALDYWGQGTLVTVSS
VL: DIVMTQSPDSLAVSLGERATINCKASKKVTIFGSISALHWYQQKPGQPPKLIYNGAKLESGVPDRFSGSGSGTDFTLTISSLQAEDVAVYYCLQNKEVPYTFGGGTKVEIKR
notes: Full length chains; also called humanized mAb A3M0
B2: in the assay with recombinant human IL-23 [3], the Kd was 0.194 nM, the koff is 0.000237 s⁻¹ and the kon was determined as 1.22e+06 M⁻¹ s⁻¹. In the assay with recombinant human IL-23 [4], the Kd worked out at 0.92 nM, the koff came to 0.00028 s⁻¹ and the kon was determined as 300000 M⁻¹ s⁻¹.
